Test: soluble on expression in E. coli; label from the status in PepcDB or PDB records

Sequence | soluble on expression in E. coli
MAHHHHHHMNFLRRNAANLCKGKVLGKHLNCSVHELTNLNKRKISNITDLGKCGQRYQATHSGSTIGAKRFASSEAQKLSEVVKAEVQHEKSNYEAPDNIKKFLQTSGWKFEEQEGDVNMVLTKNVDGMKIIIDFQLVSPFQAEGENEAQAEMTDFSVTVEKPNKQGGITFYCTTLQNDEKFRYMIGNVKYYKNEEGKNSVSAYNGPEFEDLDDSLQTSLDEWLANLGVDSELCDFIDSCSIDKEQREYMSWLQNISNFIES | not soluble
MAHHHHHHMNGLRISTYFSAFKMRWMLENVPKVEEARKRGTLCFGTIDAWLLWKLSGGKVFVTDVTNASRTFLMDIRTCKWSPELCDKLGIPMACLPEIRSNSELLTYVLSDEGGLSAALRHPTPIMGSIADQQGALLGNMCFKEGESKNTYGTGCFLLMTVGEKIRFSSHGLLSTVAYQIGNKSPFIYALEGSIAGAGATIEWLKNNMKLIDDVSDCEKFAQTVSDTHGVVFVPAFSGFLAPSWDPSARGSIFGMTLKTTRAHVLRAALLAIALQVVDVLEAMEKDAEVKVQFLRVDGGLTKNHLLMKMQSDLLGINLHRPTMAETTALGAALCAGLAAGVWKSLEEVKTISQQANVWRVIRPAASKDSQQMLRAQWKRAKQQAKWAKL | not soluble
MAHHHHHHMPIKNVQEFLPNVRPDAFPVVVAVQAQASIPVGINLAELSCATRNVEYMPNNRIPSATMRLHEPTAVVMMHNSGALSIIGAASVSEARQAAELAARIIRKALNLNFSSLKFRVRSIAARFNVCSPIRLDKLAAYQLDPAMSIGVAKLQVSYEPERFNGCVLRLVGKSSRGDNQWSVSCSVFVTGKVQLMGARSMDELRFAFNAFVPIIAKNLDERKTA | not soluble
MAHHHHHHMPSDGEGKVQQVNIDEIDAVTGFKKAELYVWNAYAAAFLAEGGEPETDVEAWIDDFCQRSEESGAVFDRNFVKSVCTLGIYAGPRDEFQQRSGCGKATYASGDTYEGEFFEGKKHGRGQYIFVSKGRSEADRVVSKEVELLTSAGKDAKAMVTEIATKLQLGRHVVEGIMQYGQRPCYHGDYVRGKRTGRGVMKNKDGTLYQGEFLENKRHGQGVYYYLNGDVYSGNWKAGAKDGYGTYHFAEGSEYRGEWVRGNFVQGQWILQGGSYYEGKFDKKNRPLDDAASLHYPSIQMAQTGAFRRGIWAPTSALQVCSEVPVDGMAWAD | soluble
MAHHHHHHMPSLNNNTIREDVIFKRRVKDVLLRHGGTGGLVKVLIDFNAREAVAARQQRQTTSTDSGSSRTDVGLSHAQLLLFLQDYGVELTPFEAAYLCRAFDDHGSGFISGETFTRHLTGLNERRLRAVKKAWQSLERRNGASGKVSRELLLSTFAAVAAERAHAAAGDPGNPADGAAHDAIATTSFSSPVGGALQSTFGGGHGMHEHLKEAYMTSMMGRGSGFMAKPNAAAGGADGESGEAADRVSYAEYLAFYAGVSPQFATDEAFVTHVLQSWAADDAARPALDETAREWGPDGDPLALDGPRYVKEALNLELGISSKSYNYSHMQREHPYVEPLPPLNRPDIMATTMQRTYVPFDKAAQMLADPLVTRRGQSK | not soluble
MAHHHHHHMQEVMQKALAGRYDPLPPTISPEMTEVVTSLLCGDPHARPSSSKLLNMPICKLFVSGLLEIVQTQPSFAGPLRDTISTHIQSVKQSLKEERRVTVRQMEESQSAAAASTTILEGATPMGSVGDLTLYEGIVKKQSGDLAWKRRYLCIRGALEEGERLDVGRMPKFKSLDLVLAVSKETMRQQCITTPFSELEDVFPVASKYTGSNAQHVFAVAFKTGRRLLFQARGDPERDAWMQKIQQTLGIDEAD | not soluble
MAHHHHHHMQRYLQRTVPVAPLRLSISGNSSTEGVHADAAPLLESRFLRRLRAEVDREARAEQLCKGTAARAIQQAFRRWAQTRQLQHRHLSIHGIVRPRCEFDPIRAAELDAALCSIQASLRVWASSRLVEARRLKLLQQITSSVLDPACRTTLRCAASIRHINDRQLREVLCRQEAVERRDLLRRHFVFLVCCHQAFFNDPRMWDAGMSIRRIPLYTHHGLLSAETLPVIWGTRTSSSTLNSATEDSVALRGDAVASPLPPESSSFSVTATVDGCIKGWGSPAEPGSSLLEAVGSDWLVGKEEDGGGFDIDAALRLGEYRLLFSPEEWRLLKKLKASSPHPASPLLSSGADGRRAARDAAGLPEAEAGALAAPRGQLQMAPTEAAAKSACSLSYAKAFASALTFLRQPRMVDPSVRCTVQRLNDIRSSTLEMQQELRVHGYLFAAQVAPLLILGFHYQGLARGDADLSCFTTTSAMKTCRPLVAGRVACAATELRRCLIGAVHYSGGAAESVLPVALEEHKCSGKAAARTLSQRLPPAGVSRSMLLPPRAAPTAGLMRDGFANPGTEALYHAPAKTTRRAGGADPRCGSSHTASRHGSAIRVALAAEWSRRLASSADEVGPYWCEFLSSTGLDGLVTAAGRRGETPGEADAAYQTRASLPSPPLPTRVRRGLESHLVHGGSSYLLQDFMPSLMRRRAHSRAGPQPLDAATGSVVVAVACAGASPSTSVSTSTCGMVHAGEWWDAVERLLLREYTNRRELLTNEAVQRSSIDILRCTAHPSADESVAGV | not soluble
MAHHHHHHMRARRWWHGPYSLLYTLNLLLSLSLSPSHAGGGKEVSTTHTYTHPSTMQRGANVRPIKLAEKVFSTKTVCPTAASQLYVAHGLLGNSGNWATASRHLVEHSALKDKLRRAIAVDMRNHGSSTHSSDHTNAALASDLEALVLREQQELDRAFCDPSSCTTRNAILIGHSMGGLTVMGALLRRANEHHLLTSLVDHCDDVGSTSSYGAWPAEHRRQCIAGMRAVNEEFGFASSQPIAEVLFNNCRASSSLSTGSGNASRIPLLGRVAGAIIVDVTPTMRLGEQRSCADNVKETLERMTQVRLDEIHSYKDATAELIRVGMADEEMRAFVATNIALDPKDKSKPAQWKCNLPVLAGDYGSFQPSITSWFTSSATTMGPASSAAAPRLCTLPVMFVFGGESPYNEPDHRQHISRFFSNATQVEVAGAGHFVHYEKPKEFTDAVAPFIASLISQP | not soluble
MAHHHHHHMRERKPIRKMKRSRVSDQIIRVEEPDAEEGEASPAKATPVPHFSDRRICINVGGEYITTLASTLCSEPSKFSEWVENNFQGLPRDSMGNPFIDRDPENFRQIISYLRGYELPTATEKIVFLAEDAEYYHIDRLLALINPPAEWRFVSGPGVSSSRKEFSTENILATCGNEPLPQVGKSVFLLRIDKCELVSIGLVGTESPDHDEPLERQTNAIAYRSTGELIRSLNSSSTFFSGNGYKGRDTVMVQVLFKPEGAAQIEFFCNDVKTHETEWLSPVPPLRFAVSLHGVSAVVIERCVAGVKDEDM | not soluble
MAHHHHHHMRGKRRQHRELYQAVLREQAAKAQEDAAQRRARLSWKEKLQLSFQEARESVTQLTSAKAGVMALLQHCTASHTAEVALEQGIDVKNVQMVFEKAAASNSVGVEEIVVGYIDAPGASHEEVMAFAEKLHKVCPVAKSMHIEWRQGSADSRRHEDGAVRRADGLHREMEQAASGVEWAESRTGSNLGGRSSAADAASTTSVESMPAGMPGSRRVQSSMSSRATRGGSLRDDEDKLHFPGVEKRDTAWDSTRHGSSRAKEPSTETSTASHRPPPPESASAATTQPGACSSDPASASPFPKP | soluble
MAHHHHHHMSAEQQRLKKMHCEAVTLAEMKQWLGLPLTTAASSSSAAPAAAAVAAAPKSPVEEAVGRDVYDMYGLSMTAVDAYLLRYLRSKNLVIEDAVAKLRRRRAFERTLPMISVTTTTVAALRSGAFHLLDHDLEGRPVLYINVATFTLPTLELDEAQRLLIILLEFMQARCLLKNNEKVAAMQRRRRQHVDATAAASSFANGGRENNGGAAAPAHGAQDVDKETVSDLQEFALLVNEERVPWMMHASFLKNYSTLLSILPKYYPLLLGSVLVLGASLEIRTAIKACVGSSSEDVRNSVQMIEKADLPRYMDASTIPVELGGHKQIVGSAMNFSETVLRHWFTLTSQIEDECVGSDGGIADSKVPTTISAAGAANGHREDGGGAETSHSPPRPLYVPPPPLGMTQRHISRQRHAVELQHLSSSVVGTITGPGSPGPMRPCKYGGSSARNGKHSLMSSAAAANRSTAVTTPHGTPTSQKDQAAATVTLGAGRAEDVTDDGVCSALSGADERDDYAENEGGGAGMHTRTNSGVPTYQLYTAASSLAGSLAVEGEMHLSGLGASHNRHHQGASLYSVASATISREEAAHFADHPDDAVVALRQERRRRQRAEQALYFRDLGVTLDMRNASIIEKELAAIHQDLNVLVAEILVKAEAARKRQKAPPTLKQLLDLTLTAFESVTCTPSSVPAMALAEPAQREAASSSCCSFM | not soluble
MAHHHHHHMSAGDTPVSLFLQACNQEGVKTPNPKLVEFFQSHETFDSILEIDLSNNYIGNRGLLAVLGVIEHLSCFRCLNAMDQKLYNSDFSEEAVKGNAVIDRIVEVFKVHPTANSLNLSNNPISNYAGRKLLSLAQVNRRMCLIEVSDTRIDFDLRNKIAKQCEENTRNMWDAEQDENANSCAVFGENLEWVPTQATADLTSLGAGRARRQTVRVEGIDPEAAKNYVPPVHEKSQEDTDMICKLLSHNVLFGFLGSKDILTVAGAMYREEFVKDERIIEFGQTHCDKLYVIQSGEADVIKEGQKVFVKTEGTAVGELELLYDTPAVATVKVSTEVLVAWVLDRETYRNLVMGSCIRRRETYMSMLAKVPFLQSLDAYERMQIADALTSDEFAAGDYIIHYDEEGEWLYIIIEGTVEVIGRDAAGNKTKVCEFHSGDHIGELEFLNKHRTVADIVAVTGVTTAKLNRRHFEMCMGPVMDVLKRNSTSAKYDYYQQVLQQQQQGAPAAVQ | soluble
MAHHHHHHMSCLNVQPVQLPITNKFRNLPAGKPSHRHESTFCRFFSDTTEKECKGSRRNINHRNKSSIFDNVEENDIIDNTKINQYNNVKKRFVSNNSLEFKKTFQKNINYVPNEKYGKKNIPDVRNLYIFSRQELNSDTKERKSSKKISNYSLEKNPNKWGVDVLKYNLPSPKKIYRHVDNLTTCLVPKISEDSFIPKKNKKYYVTHLEKSLCPKENILLLNSKKKLIHLHQSKLEMNCVPKDYEQEINKNKPVFLERNLNNNLIPIVECKRRTFHVNDTCKNKQCSINFSCERKPSPFRSGKRIGYIFTRNDNPTFFF | not soluble
MAHHHHHHMSDDIMNGDTLSEYRKIHKKNYEERIIKENELIEKQKTEELLNEKKKNEEIYRQLQIDKDREYSKQCYYEINNFQNIHERTYNDSDIRENYTQRLINPSAYSYIDNNMTQNLLDGDMGYTFSQRIRRFFLNK | not soluble
MAHHHHHHMSDEAARQQRSAELADQVRTFFATYAGSAEERLDVVRGYEKCRGDFKKMVREYLLFDNGVEAEVQRLHRLVSTLIELGNLSPTPAWKSTSTPEALLRLEKAMHRERQEAENVLKDMAGSGTGAAGAADGDLSSLQVMIRQRQQSSYESMLNHLESKYVTKKSNARESSSAHVRPHRPLARTNVLPKSTGKPLITGKSGTCAEEASASGIRPGNVGRIPLSTAVIFCFLCYCGRYRSWLNACDLSPHLLTQPPKFPAWLRGQPITVL | soluble
MAHHHHHHMSEARQIQSMIDFIEREAQEKADELNSAAQEEYDVEKMRLVEAEKVKVRANNEQKLKQVDVGRRVARANFSKAQRLRIMEAQSNIVEQLKENIKTKLMAFVKNTDSYKKLLVSILHEALSAVRTDAIVYTCKNDEPIVTGMLSELEQWYLKTVGTRVSIRMGKEYLNAEEALGGVVVKSHDGHIVCNWTLSSRMRNCVNDQLPTIRYYLFNPESSI | not soluble
MAHHHHHHMSEKKEYINPAGLRLDGRRPQESRRMTLEFGKVLGCDGCCTVMSGLATVCASVYGPREVTNRLESKYNECIITCEVAIAAFAGEKRRAPQRRSKLSEEMSAAVLEVARSVVLLSQYPNSQIHICVEVLRQDGSDKAACINAACLALVDACVAMRDIVYAQTVGLIHAVDVVDLTTEEMRSQCPTICIAVKGHDPSSIVWMESNCRVTSEVVSRLVTVAQKSSEGVFAAALRGPLEEHAAAILKLQGNLGNGD | not soluble

Reference: the DeepSol protein solubility set
